The values below come from the domain aggregation screens of Martell et al. (2025).

This data set is described as follows: soluble fraction after stress (log2 fold change); higher = more stays soluble; pooled small domains, quantitative proteomics. Conditions: stress: 75 degC.
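Also: 20 min heating vs room temperature control held 20 min.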

Take “HMPMDDETWDALSLFAYKRYARENGWPLMIGAEALRDTFASYFPLDSSTWQDRSSHYLTYQDGIYTRT”: the “soluble fraction (log2)” value was -0.247.

Turning to “HMPMDYFELFNIPRNANRETIKKILDQEYEKYRARVVSPVLEIRHEAELMLVEISKAKQVLLG”, the “soluble fraction (log2)” value is -1.08.

As for “HMPMHPEDLKKLVSIEMPFGKHKGRIIADLPGNYLNWFAREGFPPGEIGRLLQLMQEIDHNGLSDLLKPLR”, the “soluble fraction (log2)” value was -0.521.

As to “HMPMNISDIIKQAREELGMTQEDLAERLEVSRQAVSKWELGASVPSPENLRLLEELLGVELPAP”, the “soluble fraction (log2)” value is -0.198.

In the case of “HMPNFDPSYILDFGDVIQLQLVGQKNQILEIPILRDGSVNLPDIGKIFLSGMSLEEATKIIKDTYSA”, the “soluble fraction (log2)” value was -0.931.

As to “HMPNGEAYQRFTYENDILEGRFEEWDSLGTDIVKGDYTAGVRHKKWLYYDSEGRRDKFVFLDMDSI”, the “soluble fraction (log2)” value was 0.116.

Consider “HMPNNNDIVLDRVSFGYHEKEVLHGIDMTIREGTVNALVGPSGSGKSTIAKLIAGLWDVDGGSISF”, for which the “soluble fraction (log2)” value worked out at 0.555.

Take “HMPNPSAGRVHIDALLPFDRVEVTDMQGSLLLDHSFSPRRAVDLDLNARGTLLYTLWSKGHLLGKGRVVR”: the “soluble fraction (log2)” value is -0.606.

For the sequence “HMPNQLLELVEMEIRDLLNEYEFPGDDTPIIQGSALKALEDPMGPWGDKIMDLMDAVDSYIPDPE”, the “soluble fraction (log2)” value is -0.686.

Turning to “HMPPAIKTLMFMIQNKSLLKSPKQLAVVQQQLKKIKGVRDVLILLEEGKVMLKVNKHETIHEASIIRLLGG”, the “soluble fraction (log2)” value is -1.87.

For “HMPPALTELLSVRTNASGTIDYLLPDRSAGLRVENGSKYSGMVPDSIYRLVAIYEIKDAKEPSAYIYTI”, the “soluble fraction (log2)” value is -0.0495.

As to “HMPPFDDILAEYYEPLYRHVRRMVVSHDDAKDVMQEAMLRIFQGLDGLKDPSAVRTWVWRIATNEALRH”, the “soluble fraction (log2)” value was -0.0914.

“HMPPPVDLDKKGYKLRGIVLEDGRSAAFVFVPAEKRVVVLRENASGPVRLLETGMRRIRLQTPEGAGYLEL”: the “soluble fraction (log2)” value is -1.36.

For “HMPPQPATQNTKAQVMQLAREKELMAGEGRGANVEALEKFANEHGISLRGMTEEQAEQLVKLLMEYTP”, the “soluble fraction (log2)” value was -0.239.

On to “HMPPRFVPATGADLRRWLDVSGLTAEAAGDLLGVSGARFRQWLSRYRSAPLPDPVRALLVALLRP”, for which the “soluble fraction (log2)” value was -0.00746.

Regarding “HMPPSRFNELSMWFQEQLTEAGLKVDSGALKMLIEWLGQDQARLPSIIEVLVSTYGTKKKLTVDEIEPFL”, the “soluble fraction (log2)” value is -0.384.

Turning to “HMPPTSADGIEKYLASGMIRGVGPVYAKKLVSAFGDKVFDIIEAAPHQLQEVEGIGRVRAASILAAWAEQ”, the “soluble fraction (log2)” value is -0.549.

Take “HMPQLEDLEPLDSSGMVRRDGPHLVLAVGRHRGRHLEEVRDSDPSYLHWLLSPKGIEDIQAKEDIKTYLNL”: the “soluble fraction (log2)” value was -0.0235.

Regarding “HMPQLVGDVDGDGRVSVTDGEWIRASYGALPWYAGWRAAADLDGSRKIDVVDLELLRTKMGN”, the “soluble fraction (log2)” value is -0.334.

Regarding “HMPRIYSITINPEKIRTVIGPGGKVIKDITAKTGTKIEIDDSGKVDIFSPDEEHARMAVEIINTLTEE”, the “soluble fraction (log2)” value came out at 0.0671.

Take “HMPRKYFPFYFTFRETAQTMPPRLRAVFYEAIIEYGTTGKEPTLPKSIAGYWPLVKPTLDSAKAHYDAG”: the “soluble fraction (log2)” value was -3.62.

Turning to “HMPRNEIQRSVLNELVQWIKNNLAKKLTMQALSRFSGYSEWHLFRLFRHYFNMSPMAYIRQQRMQ”, the “soluble fraction (log2)” value was -0.366.

In the case of “HMPRPRIHSVVRGDTLYGISRQYGVAMSKLASLNGLKSPYRIMVGRSLRLPSAIEAERDRTAREVVQ”, the “soluble fraction (log2)” value was -1.53.

Turning to “HMPRVLSSYTLTLRHQPTAEAVALVRTLLSPAGSVEVKEDGRTLVVRDELAALSRIVGALRSFDH”, the “soluble fraction (log2)” value is -0.851.

Take “HMPRVSIEKIKKVVELLKHNPDYTYSKIGNIVGIGRKTVSGINNGKLYTDLVEELGINEFPI”: the “soluble fraction (log2)” value was -0.459.

On to “HMPRYQQIARQLKTAIEHGELKPGARLPSSRTWSQELGISRSTVESAYTELVAQGWLERRGQAGTFVSAQL”, for which the “soluble fraction (log2)” value was -1.04.

Turning to “HMPRYSGMFAAWLHKALARMGKSMSDSARSAFTERVELDYSSANNELQKLSLLVGDRKVITEADVMRAIG”, the “soluble fraction (log2)” value is -0.86.

For the sequence “HMPSALGDKIRAARKALKLSLEDLAEKVSSSKSYMWELENRDEPNPGADLLMRIAAALNVTTEHLLGP”, the “soluble fraction (log2)” value was -0.28.

Take “HMPSDLQATLRAVQGMLQGVEGVDARLAGQRILLEGDSADARARERAAAIAGIFPGVVIDFVG”: the “soluble fraction (log2)” value was -0.263.

“HMPSEAVQNIIGNVKSKRRVATIGQARGLASNVIKEGKFDNVSNTAMVNRLIDLGIISNSIGYQ”: the “soluble fraction (log2)” value was -0.0616.

For “HMPSEQGANKARDIIFRHHMKVDVWVGSWENARNYAEQAIKQGVKVIISRGGTAALLRHSLDTAIIKVR”, the “soluble fraction (log2)” value was found to be 0.14.

Take “HMPSGLFEPIKKSELSIESIDLLKDQIRAFKQADIRITFGFLLDLITKGENPAYVNASKLFEQAWER”: the “soluble fraction (log2)” value was 0.141.

With “HMPSPSTLAKVDPFLLVTNADSLLMARPDDSELRAAIITAHINLAKTNNSVDHYKEVLKIEPQNALANYN”, the “soluble fraction (log2)” value was 0.17.

In the case of “HMPSPTPEQVLKAFTDAAMQKNTVEELKQAFAKAWKMLEGTPEQHKAQDVYNIRRDELEGAA”, the “soluble fraction (log2)” value is 0.376.

Take “HMPSSIEGIEKYLGSGMIRGIGAVYAKRLVKQFGKDVFDIIEETPERLREVEGIGPIRAARIISGWADQ”: the “soluble fraction (log2)” value is -0.363.

“HMPTITSPMVGTFYRAPSPGAAPFIEVGDTVKKGQVIGIIEAMKLLNEVEADKDGVVQAFAAENGEL”: the “soluble fraction (log2)” value was -0.335.

For the sequence “HMPTLNIVDGHIAASDGVRILSIHNVTGRRYATSSKLPAGIYIVVLMPAKAETPLTVKVIVEA”, the “soluble fraction (log2)” value was -1.42.

On to “HMPTMTDIPIKIIRSRRRTLAIEVREGGEVIVRAPLYSRKAEIDAFVKAHENWIITKYNLMITKQN”, for which the “soluble fraction (log2)” value was -3.51.

“HMPTPRVPMSKQRQILQLLQDGHLSTREIAAALHISKTSVGDIAKAARLAGLDWEAASKLSDEELSARIYK”: the “soluble fraction (log2)” value is -0.36.

On to “HMPTSPKANFLKELPQEFTRKQAVTIGDKLNIKERTVDNYLAKLEQAGYLVKPKAGYYQKIKS”, for which the “soluble fraction (log2)” value is -0.0924.

“HMPTTTFENLPDAKKKTIIAALLKEFSQSPLSKAQVAPIVKESQIARGAFYKYFVDLTDAYTYLYRQ”: the “soluble fraction (log2)” value is -0.0519.

Turning to “HMPTVLKQGSTGQEVKELQQALSKLGYRVTVTGEFDTATHYGVVRFQRKHRLTIDGIVGPQTLSKIRAHQK”, the “soluble fraction (log2)” value was -2.56.

Consider “HMPVAPTYALTVKTDPPSANVRLLNSPTPYQPGVRLPSGNYDIEVTQSGYATRKESVRIADRDVALNIAL”, for which the “soluble fraction (log2)” value worked out at 0.265.

Take “HMPVASNRDVNLDIGERVFVQEWAPNRTARVQYRGSPWEARLAPGAPAAAGEHRVSAVEGNWLVLEPA”: the “soluble fraction (log2)” value is -0.139.

In the case of “HMPVEFVKISIKPGHPWENQFVRDIVSLPDLLMVLILRGEERIIPNGNTKILVGDKIVLSALSPG”, the “soluble fraction (log2)” value was -2.2.

Take “HMPVEHVWHIAENGQTSGPYSKARMGRMAQEGQLTRDTHVWTPGQDGWMRAGDVTELAQLFT”: the “soluble fraction (log2)” value is 0.0383.

“HMPVFSLTPRELEILEWMSTPNTYRQIAAQLSVSEETVRSHAKNILEKMRQPNRAQAVLAAVKMGLIKL”: the “soluble fraction (log2)” value is -1.57.

“HMPVISGQDLRVLIRDTGRERDQGISFLDDGTMVVVEDARRLIGQEVTATVTRVHQTQTGRIVFAHLSN”: the “soluble fraction (log2)” value was -1.25.

For “HMPVPSPAEQTATQLANIERHTGITVDGWTRAIAEAGAAKHGEIVAWLKQQGLTHGNANALAHAVRARQSG”, the “soluble fraction (log2)” value was determined as 0.581.

For “HMPVQSNRDALLDIGQTLQVQAWDAQGSARVSYRGSDWTAEFRGPGAAAPGLHRIIAVQGNRLIVEPA”, the “soluble fraction (log2)” value worked out at 0.342.

On to “HMPVRIYEISKKLGLENKEVLATAKSLGIAAAKVPSSSLDKITAEYLEEEILKSHPEVAARLK”, for which the “soluble fraction (log2)” value was determined as 0.142.

Take “HMPVYEEEVPAALDGQRLDRVVAMVTGLSRSEVGALLAAGAVTVDGTTPAKGSVRLAAGSIVSVTVS”: the “soluble fraction (log2)” value is -0.357.

“HMQAATGVVTASVLNIRQGPGTNYTKVGSLLKGAQVEIVGQNGAWSKIRLKSGITGWVNSSYLKTST”: the “soluble fraction (log2)” value was -1.84.

On to “HMQAGPEDIIRAKLKTAMPEAQIISIRPTPAGLYQVNAKGYESVFVTADGRYLFQGDLLEIQGDRIVNL”, for which the “soluble fraction (log2)” value was -0.186.

Consider “HMQAKNGTVTGSVVNVRGGAGTQYAVKGKASRGTKVTILGQQSSWLNVRLDNGVTGWIHADYVQISE”, for which the “soluble fraction (log2)” value is 0.592.

With “HMQAPHLALSPREFQVLQGLLAGDALDIIAERLHLSAKTVSNHQTLIRQKLGVGNAVELLRYAQLHRL”, the “soluble fraction (log2)” value is -2.49.

For “HMQAPIFMNETDGKWYFREKYLNDNHEIAYRVHPEGYDQMEDALRNSVNALNEFAAEMKELRKQV”, the “soluble fraction (log2)” value is -0.0803.

As for “HMQAPVVNHDLIKSFERQWREIKATAKGKVRSVNLSDARSILQSFLNTLQKGPGTDSLISSVQNELSLIA”, the “soluble fraction (log2)” value is -0.17.

For the sequence “HMQARDQNVDEGKALLEKEFSRLALENLDRDKLANAVNYPTRDDMYAAIGAGDLRVGQVLHQAQQLF”, the “soluble fraction (log2)” value amounted to 0.226.

Turning to “HMQASTGNVNTETLNLRKEASTSADILKLLSQGDEVEIVSESNGWYKVKYKDTEGFVSKEYITVN”, the “soluble fraction (log2)” value turned out to be 1.02.

Take “HMQATETFSLIVPMSSAGNRLDVVLSELLPNFSRKKIQDAIKNGDATLNGKAPKIRDKVYGGENITITLIL”: the “soluble fraction (log2)” value is -2.55.

Take “HMQAVDPLELRAGDFVVHEQHGIGRYVEMVQRTIGGITREYLVIEYAPAKRGQPNDRVFVPTDTLEQVS”: the “soluble fraction (log2)” value is -0.654.

As to “HMQAVKQIKVERGMTLEKIAQSEFGDSTRWGEIVEVNNLRAPYISDDPTETRDGVLKPGSNLLIPIP”, the “soluble fraction (log2)” value was -0.0397.

In the case of “HMQDEAQLSMSNKYIFEGNSIVKDNFIEAEKKYRLGVSAKPNNAVGSYNLANAYYNSKLYDEAMLRLL”, the “soluble fraction (log2)” value stood at 0.379.

Consider “HMQDEREEIAVEDVVGMPLWQARKVIADQGFRVLDDGAGDIVIAQMPSGGGKLIEGGQVMLYTYTD”, for which the “soluble fraction (log2)” value was determined as 0.687.

As for “HMQDFEEILKNAKIEDFKHTQTGEDLKVLKIEDKIEDFKGFNAYLVKNQIAYYSKFARGFVVKNIEKLQGV”, the “soluble fraction (log2)” value amounted to 0.202.

“HMQDFEQNLFDGKSIYDRMLSKFSLHNVDVKQLVAHFKRKDTEQFFADIGRGLITSAQMLGFLQT”: the “soluble fraction (log2)” value is -0.0166.

On to “HMQDLVAVPALTGLTENDAINKAKANNLIAVVSEYKTENSVEPGKVLEQDPESSTEVKKGTIIKLVVS”, for which the “soluble fraction (log2)” value is 0.756.

In the case of “HMQDQVTLIVQVNGKLRGQISISTDATKELIEQTALANENVQKFVDGQSIKKIIIVPGRLVNIV”, the “soluble fraction (log2)” value is -0.939.

For “HMQDRDKNVPAGKELLDNEIARLNMSLKQVEQFALPRYNLKTLEDLYSGIGSGDIRLNHLINFLQSKLI”, the “soluble fraction (log2)” value is 0.338.
